Consider 1 molecule from paper PMC4047056.

The assay has as its target Kv2.1 subunit (unlabeled) (human) (UniProt Q14721).

B1: Kv6.4 subunit (unlabeled) (natural protein)
chain: MPMPSRDGGLHPRHHHYGSHSPWSQLLSSPMETPSIKGLYYRRVRKVGALDASPVDLKKEILINVGGRRYLLPWSTLDRFPLSRLSKLRLCRSYEEIVQLCDDYDEDSQEFFFDRSPSAFGVIVSFLAAGKLVLLQEMCALSFQEELAYWGIEEAHLERCCLRKLLRKLEELEELAKLHREDVLRQQRETRRPASHSSRWGLCMNRLREMVENPQSGLPGKVFACLSILFVATTAVSLCVSTMPDLRAEEDQGECSRKCYYIFIVETICVAWFSLEFCLRFVQAQDKCQFFQGPLNIIDILAISPYYVSLAVSEEPPEDGERPSGSSYLEKVGLVLRVLRALRILYVMRLARHSLGLQTLGLTVRRCTREFGLLLLFLAVAITLFSPLVYVAEKESGRVLEFTSIPASYWWAIISMTTVGYGDMVPRSVPGQMVALSSILSGILIMAFPATSIFHTFSHSYLELKKEQEQLQARLRHLQNTGPASECELLDPHVASEHELMNDVNDLILEGPALPIMHM
B1 had a midpoint of the voltage dependence of inactivation, V1/2, of whole-cell currents in HEK293 cells co-expressing Kv2.1 and Kv6.4 (Kv2.1 alone: −22.6 mV) of -59.3 mV.
